Measurements reported in PMC6109231.

Molecular target: heat shock protein 60 (HSP60) (human (endogenous in HEK293T)), P10809
Assay: negative-stain EM, single-particle analysis; SEC fraction 4 (1.5 to 2 MDa) of HEK293T lysate, Superdex 200 in PBS pH 7.2 at 4°C; 2% uranyl acetate; raw micrographs, reference-free 2D class averages, 3D classification (RELION) and ab initio reconstruction (cryoSPARC); proteins identified by mass spectrometry of the fraction
Settings: remark: other sources report otherwise

B1: heat shock protein 60 (HSP60), P10809 27-573 (natural protein)
chain: AKDVKFGADARALMLQGVDLLADAVAVTMGPKGRTVIIEQSWGSPKVTKDGVTVAKSIDLKDKYKNIGAKLVQDVANNTNEEAGDGTTTATVLARSIAKEGFEKISKGANPVEIRRGVMLAVDAVIAELKKQSKPVTTPEEIAQVATISANGDKEIGNIISDAMKKVGRKGVITVKDGKTLNDELEIIEGMKFDRGYISPYFINTSKGQKCEFQDAYVLLSEKKISSIQSIVPALEIANAHRKPLVIIAEDVDGEALSTLVLNRLKVGLQVVAVKAPGFGDNRKNQLKDMAIATGGAVFGEEGLTLNLEDVQPHDLGKVGEVIVTKDDAMLLKGKGDKAQIEKRIQEIIEQLDVTTSEYEKEKLNERLAKLSDGVAVLKVGGTSDVEVNEKKDRVTDALNATRAAVEEGIVLGGGCALLRCIPALDSLTPANEDQKIGIEIIKRTLKIPAMTIAKNAGVEGSLIVEKIMQSSSEVGYDAMAGDFVNMVEKGIIDPTKVVRTALLDAAGVASLLTTAEVVVTEIPKEEKDPGMGAMGGMGGGMGGGMF
  stoichiometry N: 7
